Assay results taken from patent publication US20200199241A1 (Chugai, published 2020).
Numbering of substitutions follows the chain as printed. Numbers in names are those of the source.

B1: IgG1-F21 (antibody)
heavy: QVQLQESGPGLVKPSETLSLTCAVSGHSISHDHAWSWVRQPPGEGLEWIGFISYSGITNYNPSLQGRVTISRDNSKNTLYLQMNSLRAEDTAVYYCARSLARTTAMDYWGEGTLVTVSSASTKGPSVFPLAPSSKSTSGGTAALGCLVKDYFPEPVTVSWNSGALTSGVHTFPAVLQSSGLYSLSSVVTVPSSSLGTQTYICNVNHKPSNTKVDKKVEPKSCDKTHTCPPCPAPELLGGPSVFLFPPKPKDTLYISRTPEVTCVVVDVSHEDPEVKFNWYVDGVEVHNAKTKPREEQYNSTYRVVSVLTPLHQDWLNGKEYKCKVSNKALPAPIEKTISKAKGQPREPQVYTLPPSRDELTKNQVSLTCLVKGFYPSDIAVEWESNGQPENNYKTTPPVLDSDGSFFLYSKLTVDKSRWQQGNVFSCSVMHEALHYHYTQKSLSLSP
light: not shown
notes: copies: 2 + 2
B2: IgG1-F101 (antibody)
heavy: B1 heavy with Y254W, T258Q, P259L, P310V
light: not shown
notes: EU numbering; copies: 2 + 2
B3: IgG1-F129 (antibody)
heavy: B1 heavy with Y254M, P259A, P310V, M430L
light: not shown
notes: EU numbering; copies: 2 + 2
B4: IgG1-F88 (antibody)
heavy: B1 heavy with S256T, T258Q, P310V, Y436W
light: not shown
notes: EU numbering; copies: 2 + 2
B5: IgG1-F113 (antibody)
heavy: B1 heavy with E384A
light: not shown
notes: EU numbering; copies: 2 + 2
B6: IgG1-F136 (antibody)
heavy: B1 heavy with Y254M, P259T, P310V, M430L
light: not shown
notes: EU numbering; copies: 2 + 2
B7: IgG1-F143 (antibody)
heavy: B1 heavy with P310A
light: not shown
notes: EU numbering; copies: 2 + 2
B8: IgG1-F80 (antibody)
heavy: B1 heavy with T258Q, P310V, Y436A
light: not shown
notes: EU numbering; copies: 2 + 2
B9: IgG1-F73 (antibody)
heavy: B1 heavy with P310V, M430L, Y436W
light: not shown
notes: EU numbering; copies: 2 + 2
B10: IgG1-F86 (antibody)
heavy: B1 heavy with Y254M, S256T, T258Q, P310V, Y436W
light: not shown
notes: EU numbering; copies: 2 + 2
B11: IgG1-F85 (antibody)
heavy: B1 heavy with Y254W, T258Q, P310V
light: not shown
notes: EU numbering; copies: 2 + 2
B12: IgG1-F90 (antibody)
heavy: B1 heavy with T258E, Y436W
light: not shown
notes: EU numbering; copies: 2 + 2
B13: IgG1-F122 (antibody)
heavy: B1 heavy with T258E, P310V, M430L, Y436W
light: not shown
notes: EU numbering; copies: 2 + 2
B14: IgG1-F105 (antibody)
heavy: B1 heavy with T309A
light: not shown
notes: EU numbering; copies: 2 + 2
B15: IgG1-F137 (antibody)
heavy: B1 heavy with Y254M, P259V, P310V, M430L
light: not shown
notes: EU numbering; copies: 2 + 2
B16: IgG1-F42 (antibody)
heavy: B1 heavy with S256T, T258E, P310V, Y436A
light: not shown
notes: EU numbering; copies: 2 + 2
B17: IgG1-F131 (antibody)
heavy: B1 heavy with Y254M, P259G, P310V, M430L
light: not shown
notes: EU numbering; copies: 2 + 2
B18: IgG1-F81 (antibody)
heavy: B1 heavy with T258E, P310V, Y436A
light: not shown
notes: EU numbering; copies: 2 + 2
B19: IgG1-F145 (antibody)
heavy: B1 heavy with P310F
light: not shown
notes: EU numbering; copies: 2 + 2
B20: IgG1-F139 (antibody)
heavy: B1 heavy with Y254W, Y436W
light: not shown
notes: EU numbering; copies: 2 + 2
B21: IgG1-F91 (antibody)
heavy: B1 heavy with M430L
light: not shown
notes: EU numbering; copies: 2 + 2
B22: IgG1-F124 (antibody)
heavy: B1 heavy with T258E, P310V, M430L
light: not shown
notes: EU numbering; copies: 2 + 2
B23: IgG1-F132 (antibody)
heavy: B1 heavy with Y254M, P259I, P310V, M430L
light: not shown
notes: EU numbering; copies: 2 + 2
B24: IgG1-F107 (antibody)
heavy: B1 heavy with D378A
light: not shown
notes: EU numbering; copies: 2 + 2
B25: IgG1-F92 (antibody)
heavy: B1 heavy with S256T, T258E, M430L, Y436W
light: not shown
notes: EU numbering; copies: 2 + 2
B26: IgG1-F108 (antibody)
heavy: B1 heavy with V307A
light: not shown
notes: EU numbering; copies: 2 + 2
B27: IgG1-F77 (antibody)
heavy: B1 heavy with Y254M, T258E, P310V, M430L
light: not shown
notes: EU numbering; copies: 2 + 2
B28: IgG1-F112 (antibody)
heavy: B1 heavy with E382A
light: not shown
notes: EU numbering; copies: 2 + 2
B29: IgG1-F104 (antibody)
heavy: B1 heavy with D267A
light: not shown
notes: EU numbering; copies: 2 + 2
B30: IgG1-F72 (antibody)
heavy: B1 heavy with S256T, T258E, P310V, M430L
light: not shown
notes: EU numbering; copies: 2 + 2
B31: IgG1-F39 (antibody)
heavy: B1 heavy with S256T, P310V
light: not shown
notes: EU numbering; copies: 2 + 2
B32: IgG1-F95 (antibody)
heavy: B1 heavy with S256T, T258E, P310V, M430L, Y436F
light: not shown
notes: EU numbering; copies: 2 + 2
B33: IgG1-F106 (antibody)
heavy: B1 heavy with V305A
light: not shown
notes: EU numbering; copies: 2 + 2
B34: IgG1-F84 (antibody)
heavy: B1 heavy with Y254W, T258Q, P310V, Y436W
light: not shown
notes: EU numbering; copies: 2 + 2
B35: IgG1-F123 (antibody)
heavy: B1 heavy with T258E
light: not shown
notes: EU numbering; copies: 2 + 2
B36: IgG1-F121 (antibody)
heavy: B1 heavy with T258E, M430L, Y436W
light: not shown
notes: EU numbering; copies: 2 + 2
B37: IgG1-F99 (antibody)
heavy: B1 heavy with T258E, P310V, Y436H
light: not shown
notes: EU numbering; copies: 2 + 2
B38: IgG1-F89 (antibody)
heavy: B1 heavy with S256T, T258Q, P310V
light: not shown
notes: EU numbering; copies: 2 + 2
B39: IgG1-F142 (antibody)
heavy: B1 heavy with D272F
light: not shown
notes: EU numbering; copies: 2 + 2
B40: IgG1-F74 (antibody)
heavy: B1 heavy with P310V, M430L
light: not shown
notes: EU numbering; copies: 2 + 2
B41: IgG1-F114 (antibody)
heavy: B1 heavy with S426A
light: not shown
notes: EU numbering; copies: 2 + 2
B42: IgG1-F78 (antibody)
heavy: B1 heavy with Y254M, S256T, P310V, M430L, Y436W
light: not shown
notes: EU numbering; copies: 2 + 2
B43: IgG1-F140 (antibody)
heavy: B1 heavy with S241K
light: not shown
notes: copies: 2 + 2
B44: IgG1-F38 (antibody)
heavy: B1 heavy with S256T, P310V, Y436W
light: not shown
notes: EU numbering; copies: 2 + 2
B45: IgG1-F111 (antibody)
heavy: B1 heavy with K319A
light: not shown
notes: EU numbering; copies: 2 + 2
B46: IgG1-F141 (antibody)
heavy: B1 heavy with S300G
light: not shown
notes: EU numbering; copies: 2 + 2
B47: IgG1-F93 (antibody)
heavy: B1 heavy with Y254W, P310V, M430L, Y436W
light: not shown
notes: copies: 2 + 2
B48: IgG1-F94 (antibody)
heavy: B1 heavy with Y254M, P259L, P310V, M430L
light: not shown
notes: copies: 2 + 2
B49: IgG1-F109 (antibody)
heavy: B1 heavy with Q313A
light: not shown
notes: EU numbering; 'M4252Y' read as M252Y; copies: 2 + 2
B50: IgG1-F133 (antibody)
heavy: B1 heavy with Y254M, P259M, P310V, M430L
light: not shown
notes: EU numbering; copies: 2 + 2
B51: IgG1-F87 (antibody)
heavy: B1 heavy with Y254M, S256T, T258Q, P310V
light: not shown
notes: EU numbering; copies: 2 + 2
B52: IgG1-F128 (antibody)
heavy: B1 heavy with Y254M, P259L, P310V, M430L, Y436W
light: not shown
notes: EU numbering; copies: 2 + 2
B53: IgG1-F135 (antibody)
heavy: B1 heavy with Y254M, P259S, P310V, M430L
light: not shown
notes: EU numbering; copies: 2 + 2
B54: IgG1-F120 (antibody)
heavy: B1 heavy with Y254M, P259L, M430L
light: not shown
notes: EU numbering; copies: 2 + 2
B55: IgG1-F103 (antibody)
heavy: B1 heavy with P240A
light: not shown
notes: EU numbering; copies: 2 + 2
B56: IgG1-F76 (antibody)
heavy: B1 heavy with S256T, T258E, P310V, M430L, Y436A
light: not shown
notes: EU numbering; copies: 2 + 2
B57: IgG1-F125 (antibody)
heavy: B1 heavy with S256T, T258E, M430L
light: not shown
notes: EU numbering; copies: 2 + 2
B58: IgG1-F130 (antibody)
heavy: B1 heavy with P310M
light: not shown
notes: EU numbering; label printed 'F130' between F149 and F152 (perhaps F150); copies: 2 + 2
B59: IgG1-F134 (antibody)
heavy: B1 heavy with Y254M, P259N, P310V, M430L
light: not shown
notes: EU numbering; copies: 2 + 2
B60: IgG1-F75 (antibody)
heavy: B1 heavy with P310V, M430L, Y436A
light: not shown
notes: EU numbering; copies: 2 + 2

Each binder was assayed against T1, human FcRn (soluble human FcRn complexed with β2-microglobulin) (human, UniProt P61769 21-119, limits assumed) (assay: SPR, pH 7.0;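 further: antibodies captured on a Protein L sensor chip with human FcRn injected as analyte, KD calculated from fitted association and dissociation rate constants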).
T1 construct: also called hFcRn

| Kd [nM] | Binder |
| --- | --- |
| 30 | B1 |
| 110 | B2 |
| 220 | B3 |
| 190 | B4 |
| 32 | B5 |
| 380 | B6 |
| 200 | B7 |
| 2700 | B8 |
| 170 | B9 |
| 1500 | B10 |
| 550 | B11 |
| 19 | B12 |
| 120 | B13 |
| 75 | B14 |
| 460 | B15 |
| 1000 | B16 |
| 3000 | B17 |
| 1600 | B18 |
| 53 | B19 |
| 15 | B20 |

| Kd [nM] | Binder |
| --- | --- |
| 48 | B21 |
| 290 | B22 |
| 210 | B23 |
| 34 | B24 |
| 11 | B25 |
| 41 | B26 |
| 990 | B27 |
| 64 | B28 |
| 37 | B29 |
| 200 | B30 |
| 300 | B31 |
| 260 | B32 |
| 37 | B33 |
| 280 | B34 |
| 30 | B35 |
| 15 | B36 |
| 620 | B37 |
| 360 | B38 |
| 37 | B39 |
| 460 | B40 |

| Kd [nM] | Binder |
| --- | --- |
| 38 | B41 |
| 780 | B42 |
| 36 | B43 |
| 100 | B44 |
| 32 | B45 |
| 35 | B46 |
| 740 | B47 |
| 370 | B48 |
| 32 | B49 |
| 410 | B50 |
| 4300 | B51 |
| 170 | B52 |
| 750 | B53 |
| 63 | B54 |
| 44 | B55 |
| 1000 | B56 |
| 24 | B57 |
| 200 | B58 |
| 270 | B59 |
| 1400 | B60 |
